± gives the uncertainty stated by the source.
Test: amyloid nucleation score (Sup35N fusion, yeast selection) (log enrichment); library NNK2; higher = more nucleation; inactive = no reads after selection
Method in brief: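 Sup35N fusions to peptides of 20 random codons were expressed in psi-negative yeast, induced 24 hours with 100 μM copper sulfate, and grown 7 days at 30°C on medium lacking adenine and uracil. Input and output plasmid inserts were sequenced by Illumina. The nucleation score is the DiMSum log enrichment of output over input reads, centred on the mode score of non-aggregating sequences. Sequences with under 100 input reads were excluded.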

Row | Substance | amyloid nucleation score
1 | MPGKPWTGVVLKPRSESPAW | 0.057 ± 0.48
2 | PRLRAAG | 0.758 ± 0.26
3 | QTCCTSNEQEFVALA | 0.414 ± 0.32
4 | NTSIQQIPLMSRLGVAFVIW | -0.781 ± 0.54
5 | VTMIPA | -0.207 ± 0.63
6 | EILYYWPVNVICRKSVKDCI | 0.434 ± 0.66
7 | KLKSDLMNRTVGDLPVRARP | 5.105 ± 0.048
8 | CHVCFRETARYMCVGWYYGS | -0.283 ± 0.65
9 | DLLHETML | -0.781 ± 1.1
10 | NYKNVVSFLVR | inactive
11 | PWTRWGVSFAFKAVNKCVHV | -1 ± 0.76
12 | TICYV | -0.564 ± 0.35
13 | VCYKIVKTSYNSFWDF | 4.39 ± 0.1
14 | MTYCVN | 3.87 ± 0.067
15 | VSIIRIKYSNQAISVRNSDS | 4.155 ± 0.038
16 | LRTVDVAR | -0.654 ± 0.55
17 | IARSKVGRRYHVGRFRCVCV | -0.095 ± 0.44
18 | PGTKLLSSVNAQRDSLKKGG | -0.478 ± 0.4
19 | ATHVCVGFTYGFWW | 2.4 ± 0.14
20 | ITSVKHCAS | 1.05 ± 0.53
21 | WLVIPWRCSNDRHIWLWELQ | 1.55 ± 0.53
22 | IYLRESSVYILVFLRTFLVA | -0.542 ± 0.64

Row | Substance | amyloid nucleation score
23 | ATRCGDFDQACHSGIT | 0.749 ± 0.28
24 | SSVVISRVPTARICSEEKGP | inactive
25 | ENIYRRLLVLELLVWSCRGK | 0.569 ± 0.34
26 | IYWTNLSRLKTGANRLRDKK | 0.177 ± 0.8
27 | RLGRC | 0.94 ± 0.33
28 | YLVELNV | 0.344 ± 0.56
29 | SRAAPDINS | 0.251 ± 0.25
30 | STPDVVEAWFL | 0.039 ± 0.46
31 | ILLHIDNGRRSFSNIKATS | -0.886 ± 1.1
32 | DTWEELFKNRDNPRRKCVGL | 1.32 ± 0.41
33 | PSSKVL | 0.024 ± 0.55
34 | FSYRCFINTSQFYSAIKIFL | 0.691 ± 0.14
35 | CFSSIQIRDKTVVGDSWMFR | 3.58 ± 0.14
36 | DRIQDQRIGYVVEFSIEKVS | -0.742 ± 0.28
37 | WVSGLPHNYNSSFSTAINFS | 0.907 ± 0.3
38 | VMLSLMDKLEYMPV | 1.31 ± 0.32
39 | LTIYRSHDVRM | 3.88 ± 0.043
40 | GNVITDGESMMDCKGTMRSC | 0.584 ± 0.21
41 | RNADI | 0.343 ± 0.46
42 | TCAQYKHGTTVDSNLRSTY | -0.515 ± 0.48
43 | RVMFYVINEVWDMNSARTNT | 6.38 ± 0.08
44 | EVDSVNVSLCVS | -0.796 ± 0.64

Row | Substance | amyloid nucleation score
45 | NCPCGHVVRVNNNWRCFSVT | 6.933 ± 0.052
46 | GSVGFVQYAVGNSMTSGIMV | -0.307 ± 0.2
47 | TKSVVLMNSMSS | 0.072 ± 1.1
48 | GNRLRIKLL | -0.2 ± 0.27
49 | LLIRYSGFFCAPALTIPCGS | 5.12 ± 0.078
50 | NGSMIKWDRFASCILHAML | inactive
51 | MYPSG | 0.321 ± 0.49
52 | ATVRFWWKFVYACGMAWWWV | 0.001 ± 0.55
53 | QCWGMERSERSIRFVTRFFR | 3.5 ± 0.1
54 | RLENMCMASPR | 0.464 ± 0.46
55 | CIDRFHTVPLAVHSVCGILL | -0.319 ± 0.76
56 | YTYSHAYPRWTMFIWWHDLE | -0.378 ± 0.31
57 | LTFVCVV | 0.048 ± 0.33
58 | RVSRRCVYWRRQGHWAIFGQ | 0.098 ± 1
59 | KPRMWIYIFMAWEAYPAYI | inactive
60 | VYRMPGVSWKYVS | 0.501 ± 0.8
61 | SLQSDQSADFREDKGRSKAE | 0.898 ± 0.32
62 | FIVMEVVEERCMSIVVESNQ | -0.804 ± 0.61
63 | VFRVCEMDSSLFHYGLALDR | 0.521 ± 0.3
64 | PRDRLSSGPLQWHGFIIGYV | 0.676 ± 0.23
65 | VKLTLRVLLMSRTETHTVCR | 0.494 ± 0.44
66 | FTVKGTITVYFMVAV | 2.17 ± 0.11

Row | Substance | amyloid nucleation score
67 | YFRDRSFKKIILLPNWFMNT | inactive
68 | VNLSTGSRDLRGYWTTPIFQ | -0.815 ± 0.54
69 | DSCCIFIL | 5.67 ± 0.058
70 | IRCGREGLRR | inactive
71 | THVLIFFMVLDLGPFKTGAD | -0.441 ± 1.1
72 | FQRFVIK | -2.12 ± 0.44
73 | RLEEDGSD | 7.125 ± 0.067
74 | NGWKYLYIWFPAICSCFMRG | -0.213 ± 0.24
75 | SSYLTIPIIRVFLR | 0.126 ± 0.8
76 | LMAHTSFVDFGVKN | -0.266 ± 0.23
77 | HCKLVFRGVMTESHSSACGG | 2.82 ± 0.071
78 | IFRCRYTSGRFNAALSCC | -1.44 ± 0.49
79 | NLLWLFDV | 0.19 ± 1.1
80 | HASNH | -0.689 ± 0.42
81 | GRYLVSKTCFFYLMGNEVN | -0.307 ± 0.56
82 | DEEVSWRIG | 0.196 ± 0.46
83 | PSRMCSCCPLRGSCKDMACR | 0.256 ± 0.18
84 | DFFMTPGTLGIGTLSNISFY | inactive
85 | YVAILFRFRRSIMFNLLIQM | -0.318 ± 0.8
86 | DRESRFLYVYHSRY | inactive
87 | GYEWSSVSEQGC | 1.27 ± 0.52
88 | IRFRVLVPNLGKASDRFQVP | -0.19 ± 0.53
